From patent US6525022B1, “Receptor specific atrial natriuretic peptides” (Genentech, Inc., priority 1993, dated 2003)

What was measured:
[1] = molecular target: human NEP (hNEP), endopeptidase 24.11 (Homo sapiens, UniProt P08473); assay: in vitro; settings: Half-Life (min.)
Experimental: The half-life of various ANF variants was measured according to the following procedure.
ANF Solution: An accurately weighed amount of ANF or variant thereof was diluted with HEPES buffer (5 ml of 1 M HEPES Buffer and 0.1 ml of Tween 20 diluted to a 100 ml volume with DI water) to make a 0.5 mg/ml solution.
hNEP/HEPES Solution: 7.5 μl of a 1 mg/ml solution of hNEP (see U.S. Pat. No. 4,960,700) is dissolved in 992.5 μl of HEPES buffer (as described above) and vortex mixed. The resulting mixture is stored in a silylated Eppendorf tube and periodically checked for activity against an ANF peptide standard.
Assay conditions: 150 μl of an ANF solution in the HEPES buffer is diluted with 820 μl HEPES buffer and vortex mixed (1 sec). Careful note of the time is taken as 30 μl of the hNEP/HEPES solution is added and the solution is vortex mixed for 1 sec. and analyzed by periodic removal of constant volume aliquots by the HPLC autosampler. A 2.5 cm×50 cm, C-18 reversed-phase column (15 micron, 300 Å]) was used and elution was achieved by using a shallow gradient of increasing acetonitrile. The elution conditions consisted of a 10% to 50% acetonitrile (containing 0.1% TFA) gradient at 0.5% min.^−1. The aqueous phase was 0.1% TFA in water. The peak area of the ANP peptide is recorded at these periodic intervals and a half-life is determined from these values.

[2] = molecular target: human neutral endopeptidase 24.11 (human) (UniProt P08473); assay: cell-based or functional assay
[3] = molecular target: human natriuretic peptide receptor-A (human) (UniProt P16066); assay: competition binding, Table I; tracer and receptor format not given
[4] = molecular target: T1, human natriuretic peptide clearance receptor-C (human) (UniProt P17342); assay: as above
T1 sequence (looked up): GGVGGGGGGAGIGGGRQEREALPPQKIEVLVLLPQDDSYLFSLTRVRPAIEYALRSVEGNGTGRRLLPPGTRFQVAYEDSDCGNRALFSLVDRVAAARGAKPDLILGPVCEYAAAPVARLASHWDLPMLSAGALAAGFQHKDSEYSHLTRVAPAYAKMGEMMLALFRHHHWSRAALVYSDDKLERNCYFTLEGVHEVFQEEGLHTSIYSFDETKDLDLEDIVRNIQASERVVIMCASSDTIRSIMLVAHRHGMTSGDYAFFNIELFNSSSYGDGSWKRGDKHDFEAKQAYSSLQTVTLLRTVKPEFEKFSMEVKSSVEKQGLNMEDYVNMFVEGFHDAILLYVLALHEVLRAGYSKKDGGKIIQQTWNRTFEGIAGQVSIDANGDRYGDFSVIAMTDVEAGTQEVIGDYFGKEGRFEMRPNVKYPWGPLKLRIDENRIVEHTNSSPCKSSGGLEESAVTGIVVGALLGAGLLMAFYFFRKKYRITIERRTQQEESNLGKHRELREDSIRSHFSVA

Chain of human NEP (hNEP), endopeptidase 24.11 (P08473 whole entry): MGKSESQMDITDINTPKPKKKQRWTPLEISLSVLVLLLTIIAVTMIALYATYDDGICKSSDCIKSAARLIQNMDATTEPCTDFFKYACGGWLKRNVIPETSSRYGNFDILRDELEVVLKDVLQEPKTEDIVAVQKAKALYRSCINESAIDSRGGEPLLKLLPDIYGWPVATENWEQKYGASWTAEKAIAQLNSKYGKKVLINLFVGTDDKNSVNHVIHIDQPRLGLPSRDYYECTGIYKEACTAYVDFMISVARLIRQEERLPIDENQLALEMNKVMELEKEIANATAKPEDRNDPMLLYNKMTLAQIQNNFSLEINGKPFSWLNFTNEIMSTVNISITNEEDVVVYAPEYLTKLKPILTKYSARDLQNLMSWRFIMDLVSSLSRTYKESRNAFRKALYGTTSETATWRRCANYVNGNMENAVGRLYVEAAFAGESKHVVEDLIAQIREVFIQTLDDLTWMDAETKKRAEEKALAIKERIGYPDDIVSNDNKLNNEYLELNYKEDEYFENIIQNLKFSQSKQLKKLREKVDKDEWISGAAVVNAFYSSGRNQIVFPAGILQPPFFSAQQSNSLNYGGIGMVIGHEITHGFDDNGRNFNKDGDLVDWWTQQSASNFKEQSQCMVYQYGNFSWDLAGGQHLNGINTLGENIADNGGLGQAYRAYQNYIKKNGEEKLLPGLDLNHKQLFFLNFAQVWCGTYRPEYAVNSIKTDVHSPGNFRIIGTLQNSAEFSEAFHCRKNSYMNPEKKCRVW
Chain of human neutral endopeptidase 24.11 (human) (P08473 2-750 limits assumed): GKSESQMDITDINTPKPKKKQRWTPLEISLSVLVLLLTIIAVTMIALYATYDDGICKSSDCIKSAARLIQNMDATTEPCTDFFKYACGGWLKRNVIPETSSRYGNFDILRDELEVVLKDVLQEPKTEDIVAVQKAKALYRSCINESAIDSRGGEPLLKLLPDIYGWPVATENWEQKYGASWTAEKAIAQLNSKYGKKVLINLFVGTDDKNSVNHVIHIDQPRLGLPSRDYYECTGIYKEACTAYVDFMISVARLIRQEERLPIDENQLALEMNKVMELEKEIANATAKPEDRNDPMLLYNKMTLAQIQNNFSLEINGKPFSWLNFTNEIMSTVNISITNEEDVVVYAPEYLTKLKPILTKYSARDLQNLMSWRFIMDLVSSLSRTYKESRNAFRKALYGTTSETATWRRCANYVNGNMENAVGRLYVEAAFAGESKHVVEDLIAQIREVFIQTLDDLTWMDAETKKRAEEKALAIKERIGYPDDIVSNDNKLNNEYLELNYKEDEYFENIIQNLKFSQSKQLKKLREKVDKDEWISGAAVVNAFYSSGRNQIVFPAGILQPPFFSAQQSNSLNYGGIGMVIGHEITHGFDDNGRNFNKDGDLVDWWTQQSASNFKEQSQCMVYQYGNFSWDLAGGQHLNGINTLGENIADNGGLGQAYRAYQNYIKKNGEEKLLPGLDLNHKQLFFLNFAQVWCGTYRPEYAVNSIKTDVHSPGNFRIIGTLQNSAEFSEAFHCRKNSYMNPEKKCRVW

half-life at 32 nM/ml [1] | Molecule | Half-Life [2] | IC50 [3] | IC50 [4]
6.08 h | CC[C@H](C)[C@@H]1NC(=O)[C@H](CCCNC(=N)N)NC(=O)[C@H](CC(=O)O)NC(=O)[C@H]([C@@H](C)CC)NC(=O)[C@H](CO)NC(=O)CNC(=O)[C@H]([C@@H](C)O)NC(=O)[C@H](Cc2ccccc2)NC(=O)[C@@H](N(C)C(=O)[C@H](CO)NC(=O)[C@H](CO)NC(=O)[C@H](CCCNC(=N)N)NC(=O)[C@H](CCCNC(=N)N)NC(=O)[C@H](CC(C)C)NC(=O)[C@@H](N)CO)CSSC[C@@H](C(=O)N[C@@H](CC(N)=O)C(=O)N[C@@H](CO)C(=O)N[C@@H](Cc2ccccc2)C(=O)N[C@@H](CCCNC(=N)N)C(=O)N[C@@H](Cc2ccc(O)cc2)C(=O)O)NC(=O)CNC(=O)[C@H](CC(C)C)NC(=O)CNC(=O)[C@H](CO)NC(=O)[C@H](CCC(N)=O)NC(=O)[C@H](C)NC(=O)[C@H](CCCNC(=N)N)NC1=O [ANF 82] | – | – | –
15.5 h | CC[C@H](C)[C@@H]1NC(=O)[C@H](CCCNC(=N)N)NC(=O)[C@H](CC(=O)O)NC(=O)[C@H]([C@@H](C)CC)NC(=O)[C@H](CO)NC(=O)CNC(=O)[C@H]([C@@H](C)O)NC(=O)[C@H](Cc2ccccc2)N(C)C(=O)[C@@H](NC(=O)[C@H](CO)NC(=O)[C@H](CO)NC(=O)[C@H](CCCNC(=N)N)NC(=O)[C@H](CCCNC(=N)N)NC(=O)[C@H](CC(C)C)NC(=O)[C@@H](N)CO)CSSC[C@@H](C(=O)N[C@@H](CC(N)=O)C(=O)N[C@@H](CO)C(=O)N[C@@H](Cc2ccccc2)C(=O)N[C@@H](CCCNC(=N)N)C(=O)N[C@@H](Cc2ccc(O)cc2)C(=O)O)NC(=O)CNC(=O)[C@H](CC(C)C)NC(=O)CNC(=O)[C@H](CO)NC(=O)[C@H](CCC(N)=O)NC(=O)[C@H](C)NC(=O)[C@H](CCCNC(=N)N)NC1=O [ANF 83] | – | – | –
– | ANF 31 (peptide) | 2.97 h | 52 pM | 3.21 µM
